Data reported in patent publication US6288037A, “Substrates and inhibitors for cysteine protease ICH-1” (BASF Aktiengesellschaft, priority 1996, dated 2001).

Substrate: CC(=O)N[C@H](C(=O)N[C@@H](CC(=O)O)C(=O)N[C@H](C(=O)N[C@@H](C)C(=O)N[C@@H](CC(=O)O)C(=O)Nc1ccc([N+](=O)[O-])cc1)C(C)C)C(C)C
Assay: In vitro proteolysis assay with chromogenic para-nitroaniline-labeled peptide substrate (absorbance 405 nm)
Type: biochemical, Human
Conditions: other: pNA substrate cleaved by N-His Ich-1, 30° C.
Text: To identify peptide substrates for Ich-1, candidate peptides were used in in vitro proteolysis assays with recombinant Ich-1 protein. Human Ich-1 enzyme (the nucleotide and amino acid sequences for which are disclosed in Wang, L., et al. (1994) Cell 78:739-750) was expressed recombinantly with an N-terminal polyhistidine tag by methods described in Kamens, J., et al. (1995) J. Biol. Chem. 270:15250-15256. The resulting enzyme, called N-His Ich-1, contains Ich-1 amino acid residues 167-435, with an initiator and polyhistidine tag fused to the amino terminus. […]
A peptidic aldehyde inhibitor of Ich-1 was designed based upon the optimal peptide substrate (Peptide 43) described in Example 3. […] The ability of this peptidic aldehyde inhibitor to inhibit N-His Ich-1 activity was determined in in vitro proteolysis assays using a chromogenic para-nitroaniline-labeled peptide substrate. […]
To perform the proteolysis assay, N-His Ich-1 was preincubated for 30 minutes at 30° C. in 160 μl of a reaction buffer containing 100 mM sodium acetate (pH 6.2), 20% (v/v) glycerol, 5 mM DTT, 0.5 mM EDTA, […]. […] The incubation of N-His Ich-1 with the peptide substrate at 30° C. was continued, and the catalytic hydrolysis of peptide substrate was monitored by the change in absorbance of the samples at 405 nm due to release of pNA as a function of time. […]

B1: N-His Ich-1 (Homo sapiens) (protein)
chain 1: YQTHFQLAYRLQSRPRGLALVLSNVHFTGEKELEFRSGGDVDHSTLVTLFKLLGYDVHVLCDQTAQEMQEKLQNFAQLPAHRVTDSCIVALLSHGVEGAIYGVDGKLLQLQEVFQLFDNANCPSLQNKPKMFFIQACRGDETDRGVDQQD
chain 2: GKNHAGSPGCEESDAGKEKLPKMRLPTRSDMICGYACLKGTAAMRNTKRGSWYIEALAQVFSERACDMHVADMLVKVNALIKDREGYAPGTEFHRCKEMSEYCSTLCRHLYLFPGHPPT
notes: contains Ich-1 amino acid residues 167-435, with an initiator and polyhistidine tag fused to the amino terminus; initiator (Met) + polyhistidine tag (N); made in house
Km: 42 µM
